Values of other authors as cited in publication PMC4059260.
pKd: −log10 of the molar value. Read-outs that look alike come from different tables or passages of the source.

Columns and labels:
VEGF (Homo sapiens) [1] = molecular target: VEGF (Homo sapiens) (UniProt P15692)
VEGF (Homo sapiens) [2] = molecular target: VEGF (Homo sapiens) (UniProt P15692); remark: listed apart in the source

UniProt P15692, sequence (P15692 whole entry): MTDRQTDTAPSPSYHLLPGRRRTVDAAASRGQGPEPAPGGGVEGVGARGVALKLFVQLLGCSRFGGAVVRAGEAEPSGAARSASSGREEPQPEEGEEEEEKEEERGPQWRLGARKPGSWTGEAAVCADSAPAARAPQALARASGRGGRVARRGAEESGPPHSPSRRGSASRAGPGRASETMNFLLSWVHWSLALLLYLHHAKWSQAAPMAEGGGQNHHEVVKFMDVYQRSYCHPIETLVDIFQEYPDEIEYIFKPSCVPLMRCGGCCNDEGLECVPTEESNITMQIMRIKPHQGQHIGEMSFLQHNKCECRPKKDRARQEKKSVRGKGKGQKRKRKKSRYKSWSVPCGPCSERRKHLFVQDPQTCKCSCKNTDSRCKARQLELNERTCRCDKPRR

| pKd (VEGF (Homo sapiens) [1]) | pKd (VEGF (Homo sapiens) [2]) | Substance |
| --- | --- | --- |
| 6.38 | – | alpha-2-macroglobulin (from UniProt P01023) |
| – | 12.00 | sFlt-1 (from UniProt P17948) |
